Assay results as given in PMC4692061 (Biochemical Journal, 2015).

Biological target: the molecule itself
Test: FRET or BRET

B1: full-length EphA3 (erythropoietin-producing hepatocellular carcinoma A3 receptor tyrosine kinase) tagged at the C-terminus with mTurq or eYFP (receptor, UniProt P29320 21-983, looked up)
chain: ELIPQPSNEVNLLDSKTIQGELGWISYPSHGWEEISGVDEHYTPIRTYQVCNVMDHSQNNWLRTNWVPRNSAQKIYVELKFTLRDCNSIPLVLGTCKETFNLYYMESDDDHGVKFREHQFTKIDTIAADESFTQMDLGDRILKLNTEIREVGPVNKKGFYLAFQDVGACVALVSVRVYFKKCPFTVKNLAMFPDTVPMDSQSLVEVRGSCVNNSKEEDPPRMYCSTEGEWLVPIGKCSCNAGYEERGFMCQACRPGFYKALDGNMKCAKCPPHSSTQEDGSMNCRCENNYFRADKDPPSMACTRPPSSPRNVISNINETSVILDWSWPLDTGGRKDVTFNIICKKCGWNIKQCEPCSPNVRFLPRQFGLTNTTVTVTDLLAHTNYTFEIDAVNGVSELSSPPRQFAAVSITTNQAAPSPVLTIKKDRTSRNSISLSWQEPEHPNGIILDYEVKYYEKQEQETSYTILRARGTNVTISSLKPDTIYVFQIRARTAAGYGTNSRKFEFETSPDSFSISGESSQVVMIAISAAVAIILLTVVIYVLIGRFCGYKSKHGADEKRLHFGNGHLKLPGLRTYVDPHTYEDPTQAVHEFAKELDATNISIDKVVGAGEFGEVCSGRLKLPSKKEISVAIKTLKVGYTEKQRRDFLGEASIMGQFDHPNIIRLEGVVTKSKPVMIVTEYMENGSLDSFLRKHDAQFTVIQLVGMLRGIASGMKYLSDMGYVHRDLAARNILINSNLVCKVSDFGLSRVLEDDPEAAYTTRGGKIPIRWTSPEAIAYRKFTSASDVWSYGIVLWEVMSYGERPYWEMSNQDVIKAVDEGYRLPPPMDCPAALYQLMLDCWQKDRNNRPKFEQIVSILDKLIRNPGSLKIITSAAARPSNLLLDQSNVDITTFRTTGDWLNGVWTAHCKEIFTGVEYSSCDTIAKISTDDMKKVGVTVVGPQKKIISSIKALETQSKNGPVPV
  stoichiometry N: 2
